Laboratory results reported in patent publication US20240343803A1 (SHANDONG SIMCERE BIOPHARMACEUTICAL, published 2024).

T1: TIGIT on human PBMCs stimulated by SEA (human, UniProt Q495A1 22-244)
T1 construct: whole, on cells
T1 sequence (looked up): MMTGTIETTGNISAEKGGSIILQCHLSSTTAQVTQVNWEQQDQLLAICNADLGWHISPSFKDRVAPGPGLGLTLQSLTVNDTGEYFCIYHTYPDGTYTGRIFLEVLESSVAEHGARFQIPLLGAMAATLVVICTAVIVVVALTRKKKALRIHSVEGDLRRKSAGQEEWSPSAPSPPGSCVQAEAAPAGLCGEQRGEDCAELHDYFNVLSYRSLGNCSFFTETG

T2: full-length human TIGIT on CHO-K1 cells (CHO-K1 human TIGIT) (human, UniProt Q495A1 22-244)
T2 construct: NCBI XP_024309156.1; entry includes the signal peptide; also called high expression strain 1D2; medium expression strain 2D10
T2 sequence: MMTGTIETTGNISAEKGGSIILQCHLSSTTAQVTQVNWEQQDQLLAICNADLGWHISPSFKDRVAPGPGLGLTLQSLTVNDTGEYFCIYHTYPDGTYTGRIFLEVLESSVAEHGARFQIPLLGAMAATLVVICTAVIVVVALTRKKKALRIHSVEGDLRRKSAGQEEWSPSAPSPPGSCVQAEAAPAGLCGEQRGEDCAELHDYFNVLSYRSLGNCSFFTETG

T3: cynomolgus monkey PVRIG on FlpinCHO-cyno PVRIG cells (cynomolgus monkey, UniProt A0A2K5WVV8 41-322)
T3 construct: whole, on cells; also called FlpinCHO-cynomolgus monkey PVRIG
T3 sequence: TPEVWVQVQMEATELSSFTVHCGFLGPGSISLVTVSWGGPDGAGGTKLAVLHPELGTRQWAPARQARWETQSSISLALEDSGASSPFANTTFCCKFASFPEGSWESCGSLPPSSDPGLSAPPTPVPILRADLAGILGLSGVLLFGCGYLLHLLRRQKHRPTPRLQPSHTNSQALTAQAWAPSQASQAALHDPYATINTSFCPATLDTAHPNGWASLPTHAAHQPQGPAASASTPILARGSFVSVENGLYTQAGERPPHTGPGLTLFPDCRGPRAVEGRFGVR

T4: human PVRIG-his (AcroBiosystems, Cat NO. PVG-H52H4) (human, UniProt Q6DKI7 41-171, limits assumed)
T4 construct: treated as the same protein; also called human PVRIG-His protein; Human PVRIG-His, Acro C227P1-9ARF1-T4
T4 sequence (looked up): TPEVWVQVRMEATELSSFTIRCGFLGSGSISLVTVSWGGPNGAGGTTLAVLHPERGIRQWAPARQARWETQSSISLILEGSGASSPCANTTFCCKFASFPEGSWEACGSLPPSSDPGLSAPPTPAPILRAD

T5: cynomolgus monkey PVRIG (Novoprotein, Cat NO. C09B) (cynomolgus monkey, UniProt A0A2K5WVV8 41-171)
T5 construct: bought reagent; also called cynomolgus monkey PVRIG recombinant protein
T5 sequence: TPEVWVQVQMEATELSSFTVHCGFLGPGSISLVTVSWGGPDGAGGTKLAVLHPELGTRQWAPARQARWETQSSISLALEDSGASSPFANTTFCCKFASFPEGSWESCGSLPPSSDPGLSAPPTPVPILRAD


Columns and labels:
[1] = target: T1, TIGIT on human PBMCs stimulated by SEA; experiment: FACS, SEA-stimulated human PBMCs
Description: The fresh human PBMCs (AllCells, PB004-C) were adjusted to a density of 5×10⁵/mL, added with SEA (Toxin Technology, Inc., AT101) to 100 ng/mL, and cultured at 37° C. with 5% CO₂ for 3 days. The cells were collected 3 days later, washed once with PBS (Hyclone, SH30256), added with Fc Block (BD, 564220) and then incubated at 4° C. for 10 minutes. After washing twice with PBS, the PBMCs were resuspended to 2×10⁵/50 μL with 1% BSA-PBS. The humanized antibodies were diluted to 80 nM with 1% BSA-PBS (diluted by 3-fold serial dilution for 12 concentration points). The 50 μL cells were then mixed with 50 μL diluted antibodies, and then incubated at 4° C. for 60 minutes. […] After washing twice with PBS, the cell samples were resuspended with 1% BSA-PBS, 100 µL/well, and then analyzed by flow cytometry (BD, Canto II).

[2] = target: T2, full-length human TIGIT on CHO-K1 cells …; experiment: FACS, CHO-K1 human TIGIT low expression strain
Description: (§1) The collected cells were washed once with PBS (Hyclone, Cat NO. SH30256), resuspended to 2×10⁵/50 μL with 1% BSA-PBS. The antibodies were diluted to 80 nM with 1% BSA-PBS (diluted by 3-fold serial dilution for 12 concentration points). The 50 μL cells were then mixed with 50 μL diluted antibodies, and then incubated at 4° C. for 60 minutes. […] After washing twice with PBS, the cell samples were resuspended with 1% BSA-PBS, 100 μL/well and then analyzed by flow cytometry (BD, Canto II).

[3] = target: T6, full-length cynomolgus monkey TIGIT on CHO-K1 cells (CHO-K1 cynomolgus monkey TIGIT) (cynomolgus monkey); experiment: FACS, CHO-K1 cynomolgus monkey TIGIT cells
T6 construct: NCBI XP_015300911.1; also called cynomolgus monkey TIGIT cells
Description: as §1

[4] = target: T2, full-length human TIGIT on CHO-K1 cells …; experiment: competition FACS; blocked: Bio-CD155-His binding to CHO-K1 human TIGIT cells
Description: The collected cells were washed once with PBS (Hyclone, SH30256), resuspended to 2×10⁵/40 μL with 1% BSA-PBS. The antibodies were diluted to 210 nM with 1% BSA-PBS (diluted by 3-fold serial dilution for 12 concentration points). […] The 40 μL cells were then mixed with 40 μL diluted antibodies and 40 μL diluted Bio-CD155-His, and then incubated at 4° C. for 60 minutes. The cells were washed twice with PBS, resuspended with APC labeled streptavidin (dilution ratio 1:1700, Biolegend, 405243), 100 μL/well, and incubated at 4° C. for 40 minutes. The cell samples were washed twice with PBS, resuspended with 1% BSA-PBS (100 μL/well) and then analyzed by flow cytometry (BD, Canto II).

[5] = target: T2, full-length human TIGIT on CHO-K1 cells …; experiment: FACS, CHO-K1 human TIGIT high expression strain
Description: as §1

[6] = target: T2, full-length human TIGIT on CHO-K1 cells …; experiment: FACS, CHO-K1 human TIGIT medium expression strain
Description: as §1

[7] = target: T3, cynomolgus monkey PVRIG on …; experiment: FACS, FlpinCHO-cyno PVRIG cells
Description: After discarding the cell culture medium, the cells were rinsed with PBS and digested for 8-10 minutes by adding 1 mL Versene (Gibico, 15040-066). The Ham's F12 (Gibico, 21127-022) complete medium containing 10% FBS was then added to terminate the digestion and acquire cell suspension. After counting with a cell counter (Beckman Coulter, Vi-CELL), an appropriate amount of cell suspension was centrifuged at 350×g to remove the supernatant, washed twice with PBS, stained with Zombie violet (Biolegend, 423114) and incubated at room temperature for 20 minutes. After incubation, the cells were added with staining buffer (2% FBS+PBS) to stop staining, centrifuged at 350×g to remove the supernatant, washed twice and resuspended with staining buffer to a density of 2×10⁶ cells/mL. The cells were plated into a 96-well plate (50 μL of cell suspension per well) for further use. The antibodies were diluted from the highest concentration of 46 nM (two-fold concentration) with staining buffer by 3.3-fold serial dilution. The diluted antibodies were added to the well containing 50 μL of cell suspension. The plate was placed on a microplate shaker at 400 rpm for 1 minute to fully mix the antibodies and cells, and then incubated at 4° C. for 30 minutes. After the incubation, the cells were washed twice with staining buffer (200 μL per well) and centrifuged at 350×g for 5 minutes to discard the supernatant. The PE goat anti-human IgG Fc antibody (ebioscience, 12-4998-82) was diluted 250 times with staining buffer, added into the washed wells (100 μL per well), mixed well, and stained at 4° C. for 30 minutes. After staining, the cells were washed twice with staining buffer, finally resuspended with 200 μL staining buffer and analyzed by flow cytometry (BD, Canto II). […] An antibody binding curve was drawn with concentration of antibodies as the abscissa and the corresponding Mean Fluorescence Intensity (MFI) as the ordinate. The AUC value of the curve was calculated by using a Four Parameter Logistic Fit (GraphPadPrism9). […]

[8] = target: T3, cynomolgus monkey PVRIG on …; experiment: FACS, FlpinCHO-cyno PVRIG cells; remark: listed apart in the source
[9] = target: T4, human PVRIG-his (AcroBiosystems, Cat …); experiment: ELISA, coated human PVRIG-his
[10] = target: T5, cynomolgus monkey PVRIG (Novoprotein, …); experiment: ELISA, coated cynomolgus monkey PVRIG
[11] = target: T3, cynomolgus monkey PVRIG on …; experiment: FACS, FlpinCHO cynomolgus monkey PVRIG cells
Description: CHO-K1 stable cells ([…]-61™) transfected with human or cynomolgus monkey PVRIG high expression plasmids were named FlpinCHO-hPVRIG and FlpinCHO-cynoPVRIG. […] After discarding the cell culture medium, the cells were rinsed with PBS and digested for 8-10 minutes by adding 1 mL Versene (Gibico, 15040-066). The Ham's F12 (Gibico, 21127-022) complete medium containing 10% FBS was then added to terminate the digestion and acquire cell suspension. After cell counting, an appropriate amount of cell suspension was centrifuged at 350×g to remove the supernatant, washed twice with PBS, stained with Zombie violet (Biolegend, 423114) and incubated at room temperature for 20 minutes. After incubation, the cells were added with staining buffer (2% FBS+PBS) to stop staining, centrifuged at 350×g to remove the supernatant, washed twice and resuspended with staining buffer to a density of 2×10⁶ cells/mL. The cells were plated into a 96-well plate (50 μL of cell suspension per well) for further use. The antibodies were diluted from the highest concentration of 46 nM (two-fold concentration) with staining buffer by 3.3-fold serial dilution. The diluted antibodies were added to the well containing 50 μL of cell suspension. […] After staining, the cells were washed twice with staining buffer, finally resuspended with 200 μL staining buffer and analyzed by flow cytometry (BD, Canto II).

T6 sequence (chain, as listed by the source limits assumed): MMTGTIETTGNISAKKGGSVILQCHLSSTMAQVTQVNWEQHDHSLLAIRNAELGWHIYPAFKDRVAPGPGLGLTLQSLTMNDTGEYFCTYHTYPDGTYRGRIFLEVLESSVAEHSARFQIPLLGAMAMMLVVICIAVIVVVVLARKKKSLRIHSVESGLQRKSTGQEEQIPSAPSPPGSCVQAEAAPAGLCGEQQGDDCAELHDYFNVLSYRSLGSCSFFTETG

| Binder | EC50 (read off the curve) [1] [pM] | EC50 (read off the curve) [2] [pM] | EC50 (read off the curve) [3] [pM] | IC50 (read off the curve) [4] [pM] | EC50 (read off the curve) [5] [pM] | EC50 (read off the curve) [6] [pM] | EC50 (read off the curve) [7] [pM] | EC50 (read off the curve) [8] [pM] | EC50 (read off the curve) [9] [pM] | EC50 (read off the curve) [10] [pM] | EC50 (read off the curve) [11] [pM] |
| --- | --- | --- | --- | --- | --- | --- | --- | --- | --- | --- | --- |
| TIGIT-002-H4L3 (antibody, V domains shown, humanized; 002.VH4 with 002.VL3) VH: EVQLQESGPGLVKPSETLSLTCAVSGYSITSDSWNWIRQPPGKKLEYIGYISYSGNTYYNPSLKSRVTISRDTSKNQFSLKLSSVTAADTAVYYCARLDFSNYGGAVDYWGQGTTVTVSS VL: DIVMTQSPDSLAVSLGERATINCKASQNVRTAVAWYQQKPGQSPKLMIYSASYRYTGVPDRFSGSGSGTDFTLTISSLQAEDVAVYYCQQYYTTPWTFGGGTKVEIK | ~60 | ~100 | ~400 | ~90 | ~200 | ~100 |  |  |  |  |  |
| TIGIT-005-H2L1d (antibody, V domains shown, humanized; 005.VH2 with 005.VL1d) VH: EVQLVQSGAEVKKPGASVKVSCKASGYAFTNYLIEWVRQAPGQRLEWMGVINPGSGGTNYKEKFKGRVTITADKSSSTAYMELSSLRSEDTAVYYCARGEYFFFDYWGQGTTVTVSS VL: DIVMTQSPDSLAVSLGERATINCKASQHVSNAVAWYQHKPGQSPKLLIYSASYRYTGVPDRFSGSGSGTDFTLTISSLQAEDVAVYYCQQHYNTPHTFGGGTKVEIK | ~90 | ~90 | ~400 | ~90 | ~200 | ~100 |  |  |  |  |  |
| COM701-hIgG1 (antibody, V domains shown, human IgG1 format by its name) VH: QVQLVQSGAEVKKPGASVKVSCKASGYTFTDYNINWVRQAPGQGLEWMGYIYPYIGGSGYAQKFQGRVTMTRDTSTSTVYMELSSLRSEDTAVYYCAREDKTARNAMDYWGQGTLVTVSS VL: DIQMTQSPSSLSASVGDRVTITCRVSENIYSNLAWYQQKPGKAPKLLIYEATNLAEGVPSRFSGSGSGTDFTLTISSLQPEDFATYYCQHFWGTPYTFGQGTKLEIK |  |  |  |  |  |  | ~500 | ~600 | ~60 | ~40 | ~500 |
